Experimental data as given in PMC6794829.

Key:
[1] = tested on: T1, HcdR2 (LuxR family regulator) (Streptomyces mobaraensis US-43), ORF:dfa86b54; assay: competition; conditions: EMSA: 10 mM Tris-HCl, 50 mM KCl, 1 mM DTT, pH 7.5 (1x of 10x buffer), 20 fmol probe in 20 uL, 25-2000 nM protein, room temperature 20 min; native 5% gel, 0.5x …
T1 sequence: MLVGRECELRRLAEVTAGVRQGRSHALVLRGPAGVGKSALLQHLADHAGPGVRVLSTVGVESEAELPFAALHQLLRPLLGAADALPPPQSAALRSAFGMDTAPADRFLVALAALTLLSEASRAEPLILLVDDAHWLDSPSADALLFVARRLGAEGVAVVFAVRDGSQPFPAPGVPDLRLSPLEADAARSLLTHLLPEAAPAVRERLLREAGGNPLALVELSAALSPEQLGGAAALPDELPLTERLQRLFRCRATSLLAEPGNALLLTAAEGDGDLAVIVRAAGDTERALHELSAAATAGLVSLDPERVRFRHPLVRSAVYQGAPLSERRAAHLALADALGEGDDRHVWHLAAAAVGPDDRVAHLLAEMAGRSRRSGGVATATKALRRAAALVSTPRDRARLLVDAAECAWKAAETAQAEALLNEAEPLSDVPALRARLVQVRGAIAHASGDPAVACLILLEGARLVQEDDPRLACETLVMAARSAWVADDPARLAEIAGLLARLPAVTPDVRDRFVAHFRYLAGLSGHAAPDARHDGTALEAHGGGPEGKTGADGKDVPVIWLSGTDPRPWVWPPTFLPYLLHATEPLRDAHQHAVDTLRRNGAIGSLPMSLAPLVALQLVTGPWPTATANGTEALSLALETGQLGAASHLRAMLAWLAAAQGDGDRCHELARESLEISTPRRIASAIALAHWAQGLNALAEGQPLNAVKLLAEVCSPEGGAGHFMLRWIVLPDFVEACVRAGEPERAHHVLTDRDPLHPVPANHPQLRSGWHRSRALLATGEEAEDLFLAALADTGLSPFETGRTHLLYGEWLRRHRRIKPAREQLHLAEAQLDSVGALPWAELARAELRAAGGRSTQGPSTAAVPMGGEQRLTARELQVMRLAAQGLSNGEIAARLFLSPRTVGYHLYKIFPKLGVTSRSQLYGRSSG

[2] = tested on: T1, HcdR2 (LuxR family regulator) (Streptomyces mobaraensis US-43), ORF:dfa86b54; assay: EMSA; conditions: EMSA: 10 mM Tris-HCl, 50 mM KCl, 1 mM DTT, pH 7.5 (1x of 10x buffer), 20 fmol probe in 20 uL, 25-2000 nM protein, room temperature 20 min; native 5% gel, 0.5x …

## CTCTTCGCGGGGAGAGAGCGGCCGGTCGCGGCACGGCGAGCCTATGAAGATCGACACGGCCGCCCCACCCCCTACGACCCCTACGAACCCCTGTCCCCTACCGGCGCGGCAGGGGACAGGGGTTCGTAGGGGTCGTAGGGGGTGGGGGGCCGCCGGACGATCTTCATAGGCTCGCTCTCGATCGGAGACGGCCCTCGCAGCCGTGTCCCCGGCAACCCGGACTTCTCGCGGACCGGCCGCCCCCAGGCCGACCCCCCTACTCGATCCACGACGAGAAAGAGGTT (double strand) [V2 Bp]
[1]
  binding: binds

## CGCGCCCAGCGGCCAGGTGGGCCGTTGCGCCAGGCGGGCGGCCGCCACCCCCGCAGTGCCAGGGGCAGTCCGCCGCACAGCTCGGCCAGCCGTCGCGCAGC (double strand) [hcdR1p]
[1]
  binding: no binding

## GATTCAGCCAAGTGACCCCGCAAGAAGCCTCGTTCGCGAACGGTCCCTGAGCCCGCGCCCGCGCCGCACCCGCGGACCATCCGCCGAACGGCCGGGCCGCCCGTACGGTCTGGAGAGCGCCACGGCGTGCGGGTCCCGGTGGTGGGCCACGGCGCGGCCGACCCGTCAGGTGTTTCCGGGAGGCCGCGCCGCGGAGGGCACGCACGTCCGTGGCGGGACCGGGGGACGGGAGACGGCGTGGCGCCGCGTCATGGTCGTCCGGCGCCTCGATGCCGTCACGGCGCAGGGCGGGCCCGCCGG (double strand) [hcdT-1p]
[2]
  binding: no binding
